First the molecules themselves.
B1: dBr_Jan07_03394 (dsDNA)
DNA 1: ATGGACCAATTGCGCGGAATGACGTGTCGCGCACGTGTCTGTGTTCCGTTGTCCGTGCTG
DNA 2: CAGCACGGACAACGGAACACAGACACGTGCGCGACACGTCATTCCGCGCAATTGGTCCAT
B2: dBr_Jan07_02651 (dsDNA)
DNA 1: TGCATAACGACCGGCACGTGCCTTTCATATGTATCTGTCTGTGTTCCGTTGTCCGTGCTG
DNA 2: CAGCACGGACAACGGAACACAGACAGATACATATGAAAGGCACGTGCCGGTCGTTATGCA
B3: dBr_Jan07_23034 (dsDNA)
DNA 1: TCCGTACGGTCTCGTTCCATAGCTTGCTACCATGTGGTCTGTGTTCCGTTGTCCGTGCTG
DNA 2: CAGCACGGACAACGGAACACAGACCACATGGTAGCAAGCTATGGAACGAGACCGTACGGA
B4: dBr_Jan07_37497 (dsDNA)
DNA 1: CCAGTTAGTAACACGTGTCCACTCCTTGTCGTACAGGTCTGTGTTCCGTTGTCCGTGCTG
DNA 2: CAGCACGGACAACGGAACACAGACCTGTACGACAAGGAGTGGACACGTGTTACTAACTGG
B5: dBr_Jan07_20507 (dsDNA)
DNA 1: GTGCCCGATTGTCTACGGCACCACGTGTGTTACCAGGTCTGTGTTCCGTTGTCCGTGCTG
DNA 2: CAGCACGGACAACGGAACACAGACCTGGTAACACACGTGGTGCCGTAGACAATCGGGCAC
B6: dBr_Jan07_15832 (dsDNA)
DNA 1: TGCTAGGTGCGGGGCGTGCCATTGTACCACGTGGCTGTCTGTGTTCCGTTGTCCGTGCTG
DNA 2: CAGCACGGACAACGGAACACAGACAGCCACGTGGTACAATGGCACGCCCCGCACCTAGCA
B7: dBr_Jan07_11048 (dsDNA)
DNA 1: CGAAATCTTACATGCTCTTGGGTCTAAGACGCACGTGTCTGTGTTCCGTTGTCCGTGCTG
DNA 2: CAGCACGGACAACGGAACACAGACACGTGCGTCTTAGACCCAAGAGCATGTAAGATTTCG
B8: dBr_Jan07_13904 (dsDNA)
DNA 1: CGCTGCCCCATATTTGTCATGCGTTTGCGGCACGTGGTCTGTGTTCCGTTGTCCGTGCTG
DNA 2: CAGCACGGACAACGGAACACAGACCACGTGCCGCAAACGCATGACAAATATGGGGCAGCG
B9: dBr_Jan07_23485 (dsDNA)
DNA 1: CAGTGTAGAAAGTGAACACGTGTGACACGCCTGGTTGTCTGTGTTCCGTTGTCCGTGCTG
DNA 2: CAGCACGGACAACGGAACACAGACAACCAGGCGTGTCACACGTGTTCACTTTCTACACTG
B10: dBr_Jan07_20580 (dsDNA)
DNA 1: AAATACCTATCGATAACCACTCACGTGGTGGTTCGCGTCTGTGTTCCGTTGTCCGTGCTG
DNA 2: CAGCACGGACAACGGAACACAGACGCGAACCACCACGTGAGTGGTTATCGATAGGTATTT
B11: dBr_Jan07_02368 (dsDNA)
DNA 1: CTGTAGAACTGGCATCTTCAATCCACCGCGTGGTGAGTCTGTGTTCCGTTGTCCGTGCTG
DNA 2: CAGCACGGACAACGGAACACAGACTCACCACGCGGTGGATTGAAGATGCCAGTTCTACAG
B12: dBr_Jan07_27306 (dsDNA)
DNA 1: ACTATACAGTTTATTCATACACGGGTGCCTGCACGTGTCTGTGTTCCGTTGTCCGTGCTG
DNA 2: CAGCACGGACAACGGAACACAGACACGTGCAGGCACCCGTGTATGAATAAACTGTATAGT
B13: dBr_Jan07_14817 (dsDNA)
DNA 1: AGCGAGAGGCTGCTCACTCGTGGCAACACCCACGTGGTCTGTGTTCCGTTGTCCGTGCTG
DNA 2: CAGCACGGACAACGGAACACAGACCACGTGGGTGTTGCCACGAGTGAGCAGCCTCTCGCT
B14: dBr_Jan07_40749 (dsDNA)
DNA 1: CTTCATGTCGCCCGCGTGGGTTGCCACACCAAGTGCGTCTGTGTTCCGTTGTCCGTGCTG
DNA 2: CAGCACGGACAACGGAACACAGACGCACTTGGTGTGGCAACCCACGCGGGCGACATGAAG
B15: dBr_Jan07_17036 (dsDNA)
DNA 1: ACATTTCTCCGCTCGTCCCACATAGCGTCACGTGGGGTCTGTGTTCCGTTGTCCGTGCTG
DNA 2: CAGCACGGACAACGGAACACAGACCCCACGTGACGCTATGTGGGACGAGCGGAGAAATGT
B16: dBr_Jan07_10488 (dsDNA)
DNA 1: ACCTCGGACATGCACATTTGTCTTAAACCACGTGCGGTCTGTGTTCCGTTGTCCGTGCTG
DNA 2: CAGCACGGACAACGGAACACAGACCGCACGTGGTTTAAGACAAATGTGCATGTCCGAGGT
B17: dBr_Jan07_09181 (dsDNA)
DNA 1: CACATTATTTCACACGTGGACGGCACCCACAAACACGTCTGTGTTCCGTTGTCCGTGCTG
DNA 2: CAGCACGGACAACGGAACACAGACGTGTTTGTGGGTGCCGTCCACGTGTGAAATAATGTG
B18: dBr_Jan07_24960 (dsDNA)
DNA 1: CGCAAAGCATTATCAACCTGGGTGCCTATCACGTGGGTCTGTGTTCCGTTGTCCGTGCTG
DNA 2: CAGCACGGACAACGGAACACAGACCCACGTGATAGGCACCCAGGTTGATAATGCTTTGCG
B19: dBr_Jan07_41742 (dsDNA)
DNA 1: AGAGTCATTGGGGAGGCAAAATTCCCACGTGTATCGGTCTGTGTTCCGTTGTCCGTGCTG
DNA 2: CAGCACGGACAACGGAACACAGACCGATACACGTGGGAATTTTGCCTCCCCAATGACTCT
B20: dBr_Jan07_17844 (dsDNA)
DNA 1: AATGGACTCGTTTTTTTTGCGTTATTAGACCACGCGGTCTGTGTTCCGTTGTCCGTGCTG
DNA 2: CAGCACGGACAACGGAACACAGACCGCGTGGTCTAATAACGCAAAAAAAACGAGTCCATT
B21: dBr_Jan07_17989 (dsDNA)
DNA 1: GTCACGTGAATGCGACCCGCCAATTGGAAATTAAATGTCTGTGTTCCGTTGTCCGTGCTG
DNA 2: CAGCACGGACAACGGAACACAGACATTTAATTTCCAATTGGCGGGTCGCATTCACGTGAC
B22: dBr_Jan07_28926 (dsDNA)
DNA 1: CGCAGCCATTACCGCGTGGGAGTATTCGCCCGTACGGTCTGTGTTCCGTTGTCCGTGCTG
DNA 2: CAGCACGGACAACGGAACACAGACCGTACGGGCGAATACTCCCACGCGGTAATGGCTGCG
B23: dBr_Jan07_06714 (dsDNA)
DNA 1: TTCCGCGTGGACGTGACATCGTAGACGATTACCCACGTCTGTGTTCCGTTGTCCGTGCTG
DNA 2: CAGCACGGACAACGGAACACAGACGTGGGTAATCGTCTACGATGTCACGTCCACGCGGAA

The target of this data set is WT Max (Homo sapiens, UniProt P61244-2 13-93, M65Nle, norleucine written as M; other non-natural residues written as X). The data set is described as follows: PBM; 50-200 nM protein; PBS, 2% milk, BSA, salmon testes DNA, 0.02% Triton X-100. Conditions: chain copies: 2; label: surface-attached array probe.
Chain of WT Max (P61244 other isoform, or with tags, fused parts or gaps M65Nle): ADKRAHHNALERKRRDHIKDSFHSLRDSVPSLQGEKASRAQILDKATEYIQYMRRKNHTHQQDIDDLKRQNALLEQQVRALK
With B1, the binding signal was 3.89 robust z of log adjusted intensity (ours), mean of two arrays.
Consider B2, for which the binding signal was 3.82 robust z of log adjusted intensity (ours), mean of two arrays.
Regarding B3, the binding signal was 3.64 robust z of log adjusted intensity (ours), mean of two arrays.
On to B4, for which the binding signal is 4.27 robust z of log adjusted intensity (ours), mean of two arrays.
In the case of B5, the binding signal is 4.13 robust z of log adjusted intensity (ours), mean of two arrays.
Regarding B6, the binding signal was 3.84 robust z of log adjusted intensity (ours), mean of two arrays.
As for B7, the figure is 5.56 robust z of log adjusted intensity (ours), mean of two arrays.
Regarding B8, the binding signal is 3.73 robust z of log adjusted intensity (ours), mean of two arrays.
In the case of B9, the binding signal was 4.26 robust z of log adjusted intensity (ours), mean of two arrays.
For B10, the binding signal is 3.85 robust z of log adjusted intensity (ours), mean of two arrays.
As for B11, the figure is 5.5 robust z of log adjusted intensity (ours), mean of two arrays; as for B12, 3.99 robust z of log adjusted intensity (ours), mean of two arrays; as for B13, 4.16 robust z of log adjusted intensity (ours), mean of two arrays.
As for B14, the figure is 4.44 robust z of log adjusted intensity (ours), mean of two arrays.
As for B15, the figure is 4.03 robust z of log adjusted intensity (ours), mean of two arrays; as for B16, 4.16 robust z of log adjusted intensity (ours), mean of two arrays.
Turning to B17, the binding signal is 3.99 robust z of log adjusted intensity (ours), mean of two arrays.
Turning to B18, the binding signal was 4.08 robust z of log adjusted intensity (ours), mean of two arrays.
As for B19, the figure is 4.07 robust z of log adjusted intensity (ours), mean of two arrays; as for B20, 3.78 robust z of log adjusted intensity (ours), mean of two arrays.
As for B21, the figure is 4.17 robust z of log adjusted intensity (ours), mean of two arrays.
As for B22, the figure is 3.92 robust z of log adjusted intensity (ours), mean of two arrays; as for B23, 4.26 robust z of log adjusted intensity (ours), mean of two arrays.

The values are drawn from article PMC12636033, “Chemical Engineering of Transcription Factors Uncovered Cell-Permeable μMax Modulators”.
